This note sets out measurements from the nanobody polyreactivity screen of Harvey et al. (2022).

This data set is described as follows: yeast display, Sf9 membrane polyspecificity reagent, FACS + sequencing; frameworks hold sequencing errors. In short, it runs like this:
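A nanobody's polyreactivity label depends on the gate it was sorted from. Yeast display cells were stained with 10% biotinylated, detergent-solubilized Sf9 membrane reagent for 1 hour at 4 °C, enriched on streptavidin microbeads and sorted by FACS. The low and high (top ~1%) gates were set on anti-HA fluorescence for expression and streptavidin fluorescence for reagent binding.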
For the sequence “QVQLVESGGGLVQAGGSLRLSCAASGRIFDKYTMGWYRQAPGKERELVATMTRGGVSTYYADSVKGRFTISRDNAKNTVYLQMNSLKPEDTAVYYCNAVWRLRVRYGYWGQGTHVTVSS”, the “polyreactivity (PSR sort gate)” value is “high polyreactivity”.
Then “QVQLVESGGGLVQAGGSLRLSCAASGRIFDKYTMGWYRQAPWKERELVPAISKSGSGTFYADSVKGRFTISRDNAKNTVYLQMNSLKPEDTAVYYCARVYTVGSGRSWRLDYWGQGTQVTVSS”, with “high polyreactivity”.
The same measure for “QVQLVESGGGLVQAGGSLRLSCAASGRIFDLNAMGWYRPAPGKERELVAAITNTGSTNYADSVKGRFTISRDNAKNTVYLQMNSLKPEDTAVYYCARTYWLRYYGYRDDEYDYWGQGTQVTVSS”: “low polyreactivity”; for “QVQLVESGGGLVQAGGSLRLSCAASGRIFDLNAMGWYRQAPGKERELVAAITFSGGDTYADSVKGRFTISRDNAKNTVYLEMYSLKPEDTAVYYCAKDHYGDDTYGTPYDYDYWGQGTQVTVSS”: “low polyreactivity”.
On to “QVQLVESGGGLVQAGGSLRLSCAASGRIFDLNAMGWYRQAPGKERELVADINSGGSTYYADSVKGRFTISRDNAKNTVYLQMNSLKPEDTAVYYCAVRRNQHVVQMYYWGQGTQVTVSS”, for which the “polyreactivity (PSR sort gate)” value was “low polyreactivity”.
The same measure for “QVQLVESGGGLVQAGGSLRLSCAASGRIFDLNVMGWYRQAPGKERELVAAIRSGGRTNYADSVKGRFTISRDNAKNTVYLQMNSLKPEDTAVYYCNVRRGYWHPRYGWANYDYWGQGTQVTVSS”: “high polyreactivity”; for “QVQLVESGGGLVQAGGSLRLSCAASGRIFDLYAMGWYRQAPGKERELVATISGSGGSTYYADSVKGRFTISRDNAKNTVYLQMNSLKPEDTAVFYCAAVSVSSWYDYWGLGTQVTVSS”: “low polyreactivity”; for “QVQLVESGGGLVQAGGSLRLSCAASGRIFDLYTMGWYRQAPGKERELVAAIRWSDGSTYYADSVKGRFTISRDNAKNTVYLQMNSLKPEDTAVYYCAADSRTSYYNDDYDYWGQGTQVTVSS”: “low polyreactivity”.
Then “QVQLVESGGGLVQAGGSLRLSCAASGRIFDLYTMGWYRQAPGKERELVAAIRWSDGSTYYADSVKGRFTISRDNAKNTVYLQMNSLKPEDTAVYYCNRDPPRVLWYYLLSDSKLDSWGQGTQVTVSS”, with “low polyreactivity”.
The same measure for “QVQLVESGGGLVQAGGSLRLSCAASGRIFDNNAMGWYRQAPGKERELVAAIDWRGGSTDYADSVKGRFTISRDNAKNNVYLHMNSLKQEDTAVYYCVAGHVRYWHGYSYDYWGQGTQVTVSS”: “low polyreactivity”; for “QVQLVESGGGLVQAGGSLRLSCAASGRIFDPYAMGWYRQAPGKERELVASISWSGGRTYYADSVKGRFTISRDNAKNTVYLQMNSLKPEDTAVYYCARDYGQYGWYRYGRTYDHWGQGTQVTVSS”: “high polyreactivity”.
Regarding “QVQLVESGGGLVQAGGSLRLSCAASGRIFDQYALGWYRQAPRKESELVAFINRGGSTNYADSVKGRFTISRDNAKNTVYLQMNSLKPEDTEVYYCAADGDYYVESQTGHTYYYWGQGTQVTVSS”, the “polyreactivity (PSR sort gate)” value is listed as “low polyreactivity”.
Consider “QVQLVESGGGLVQAGGSLRLSCAASGRIFDQYTMGWYRQAPGKERELVAAIRWSDGSTYYADSVKGRFTISRDNAKNTVYLQMNSLKPEDTAVYYCAADTRTSYYNDDYDYWGQGTQVTVSS”, for which the “polyreactivity (PSR sort gate)” value is given as “low polyreactivity”.
Then “QVQLVESGGGLVQAGGSLRLSCAASGRIFDRNAMGWYRQAPGKERELVAAISSRGTSTYYADSVKGRFTISRDNAKNTVYLQMNSLKPEDTAVYYCAARPRYASDEFGYWGQGTQVTVSS”, with “low polyreactivity”.
Regarding “QVQLVESGGGLVQAGGSLRLSCAASGRIFDRNAMGWYRQAPGKERELVARIDPGDDTNYADSVKGRFTISRDNAKNTVYLQMNSLKAEDTAVYYCATDPDYVLYRTAYYEYDYWGQGTQVTVSS”, the “polyreactivity (PSR sort gate)” value is reported as “low polyreactivity”.
The same measure for “QVQLVESGGGLVQAGGSLRLSCAASGRIFDSYAMGWYRQAPGKERELVAVISNNDGTTYYADSVKGRFTISRDNAKTTVYLQMNSLKPEDTAVYYCNAVYSSGVDGSEGFDYWGQGTQVTVSS”: “low polyreactivity”; for “QVQLVESGGGLVQAGGSLRLSCAASGRIFDTNAMGWYRQAPGKERELVAAITYSGGSTYYADSVKGRFTISRDNAKNTVYLQMNSLKPEDTAVYYCAAGPYDPRYDYWGQGTQVTVSS”: “high polyreactivity”; for “QVQLVESGGGLVQAGGSLRLSCAASGRIFDTNVMGWYRQAPGKERELVAALSYSGGSTYYADSVKGRFTISRDNAKNTVYLQMNSLKPEDTAVYYCAAQYWQGDYDYRGQGTQVTVSS”: “high polyreactivity”.
The same measure for “QVQLVESGGGLVQAGGSLRLSCAASGRIFDVYAKGWYRQAPGKERELFAAISKSDGRTYYADSVKGRFTISRDNAKNTVYLQMNSLKPEDTAVYYCNVRAYGARAGTKMYYWGQGTQVNVSS”: “low polyreactivity”; for “QVQLVESGGGLVQAGGSLRLSCAASGRIFDVYAMGWYRQAPGKERELVATITGSGGGTYYADSVKGRFTISRDNAKNTVYLQMNSLKPEDSEVYYCASYYYPNYAYYVSNVVYDYWVQGTQVTVSS”: “low polyreactivity”; for “QVQLVESGGGLVQAGGSLRLSCAASGRIFDWNAMGWYRQAPGKERELVAAISYSDGSTYYADSVKGRFTISRDNAKNTVYLQMNSLKREDTAVYYCDADFYDRTYITWYEYWGQGTQVTVSS”: “high polyreactivity”.
Then “QVQLVESGGGLVQAGGSLRLSCAASGRIFDWNTMGRYRQAPGKERELVAAISYEGSTYYADSVKGRFTISRDNAKNTVYLQMNSLKPEDTAVFYCNAYPLTQYFAQGYDYWGQGTQVTVSS”, with “low polyreactivity”.
With “QVQLVESGGGLVQAGGSLRLSCAASGRIFDYNAMGWYRQVPGKERELVAAITKDDGSTYYADSVKGRFTISRDNAKNTVYLQMTSLKPEDTAVYYCAADFYWTYVDIWYDYWGHGTQVTVSS”, the “polyreactivity (PSR sort gate)” value is “low polyreactivity”.
Then “QVQLVESGGGLVQAGGSLRLSCAASGRIFDYYAMGWYRPAPGKERELVAAITSGGTTTYYADSVKGRFTISRDNAKNTVYVQMNSLKPEDTAVYYCAKYPYHIYHTDGDYWGQGTQVTVSS”, with “low polyreactivity”; and “QVQLVESGGGLVQAGGSLRLSCAASGRIFDYYAMGWYRQAPGKERELVAAIDWRGDRTYYADSVKGRFTISRDNAKNTVYLQMNSLKPEDTAVYYCNVLDTRQVGGYRFDYWGQGTQVTVSS”, with “low polyreactivity”.
The same measure for “QVQLVESGGGLVQAGGSLRLSCAASGRIFDYYAMGWYRQAPGKERELVAAISSSVGNTYYADSVKGRFTISRDNAKNTVYLQMNSLKPEDTAVYYCADYSYVRSSYEVEYDYWGQGTQVTVSS”: “low polyreactivity”; for “QVQLVESGGGLVQAGGSLRLSCAASGRIFDYYAMGWYRQAPGKERELVASISRSGGSTYYADSVKGRFTISRDNAKNTVYLQMNSLKPEDTAVYYCAAVRYITKEFYWGQGTQVTVSS”: “high polyreactivity”; for “QVQLVESGGGLVQAGGSLRLSCAASGRIFDYYAMGWYRQAPGKERELVAVINRDGSTYYADSVKGRFTISRDNAKNTVYLQMNSLKPEDTAVYYCARDSAWAARGPFTDGAYDSWGQGTQVTVSS”: “low polyreactivity”.
The same measure for “QVQLVESGGGLVQAGGSLRLSCAASGRIFDYYAMGWYRQAPGKERELVAVISRGGRTKYADSVKGRFTISRDNAKNTVYLQMNSLKPEDTAVFYCAAYPSYYGDSGLRYDYWGQGTQVTVSS”: “high polyreactivity”; for “QVQLVESGGGLVQAGGSLRLSCAASGRIFDYYGMGWYRHAPGKERELVAAITSSGSRTYYADSVKGRFTISRDNAKNTVYLQMNSLKPEDTAVYYCARGGGRRKGLVDYWGQGTQVTVSS”: “low polyreactivity”; for “QVQLVESGGGLVQAGGSLRLSCAASGRIFDYYTMGWYRQAPGKESELVAAITKSGGSTYYADSVKGRFTISRDNAKNTVFLLMNILKPEDTAVYYCAAVTYDYYWFGDIEDDFWGQGTQVTVSS”: “low polyreactivity”.
“QVQLVESGGGLVQAGGSLRLSCAASGRIFEHYAMGWYRQAPGKERELVATISSGGSTYYADSVKGRFTISRDNAKNTVYLQMNSLKPEDTAVYYCAAERFWPYKSYYWGQGTQVTVSS”: the “polyreactivity (PSR sort gate)” value is recorded as “low polyreactivity”.
On to “QVQLVESGGGLVQAGGSLRLSCAASGRIFELNARGWYSQAPGKERELVAVISSGGNTHYADSVKGRFTISRDNAKNTVYLQMNSLNPEDTAVYYCAAVASKHWGRDYWGQGTQVTVSS”, for which the “polyreactivity (PSR sort gate)” value is “low polyreactivity”.
For “QVQLVESGGGLVQAGGSLRLSCAASGRIFEPYAMGWYRQAPGNERELVAAINSGGSTNYADSVKGRFTISRDNAKNTVYLQMNSLKPEDTAVYYCAASVYGQHAGPGRWYTFYYWGQGTQVTVSS”, the “polyreactivity (PSR sort gate)” value was “low polyreactivity”.
For “QVQLVESGGGLVQAGGSLRLSCAASGRIFESKAMGWYRQAPGKERELVAAISVNGASTSYADSVKGRFTISRDNAKNTVYLQMNSLKPEDTAVYYCAARRGKGYYYWGQGTQVTVSS”, the “polyreactivity (PSR sort gate)” value is “high polyreactivity”.
The same measure for “QVQLVESGGGLVQAGGSLRLSCAASGRIFEVNVMGWYRQAPGKERELVAAITTGGGSTYYADSVKGRFTISRDNAKNTVYLQMNSLKPEDTAVYYCAAEPILIDEYWGQGTQVTVSS”: “low polyreactivity”; for “QVQLVESGGGLVQAGGSLRLSCAASGRIFEVYDMGWYRKAPGKERELVAAISESDDNTYYADSVKGRFTISRDNAKNTVYLQMNSLKPEDTAVYYCNADVPGDTGWWGFDYWGQGTQVTVSS”: “low polyreactivity”.
As to “QVQLVESGGGLVQAGGSLRLSCAASGRIFFANAMGWYRQAPGKERELVATITSGESTNYADSVKGRFTISRDNAKNTVYFEMNSLKPEDTAVYYCAADYYWYSPGAYSYAGYDYWGQGTQVTVSS”, the “polyreactivity (PSR sort gate)” value is “low polyreactivity”.
As to “QVQLVESGGGLVQAGGSLRLSCAASGRIFFDYAMGWYRQAPGKERELGADISYNGGSTNYADSVKGRFTISRDNAKNTVYLQMISLKPEDTAVYYCNRALVPVYDLDYYWGQGTQVTVSS”, the “polyreactivity (PSR sort gate)” value is given as “low polyreactivity”.
The same measure for “QVQLVESGGGLVQAGGSLRLSCAASGRIFFDYAMGWYRQAPGKERELVAAISSGGSRTYYADSVKGRFTISRDNAKNTVYLQMNSLKPEDTAVYYCAADSTVYQDEYWGQGTQVTVSS”: “high polyreactivity”.
